Results published in article PMC9813358, “Insights into the GSDMB-mediated cellular lysis and its targeting by IpaH7.8” (Nature Communications, 2023).

B1: IpaH7.8 protein (residues 23–565) [Shigella flexneri] / GSDMB (residues 1-411) [human] (parent complex)
chain 1: SNEHYLRILTEWEKNSSPGEERGIAFNRLSQCFQNQEAVLNLSDLNLTSLPELPKHISALIVENNKLTSLPKLPAFLKELNADNNRLSVIPELPESLTTLSVRSNQLENLPVLPNHLTSLFVENNRLYNLPALPEKLKFLHVYYNRLTTLPDLPDKLEILCAQRNNLVTFPQFSDRNNIRQKEYYFHFNQITTLPESFSQLDSSYRINISGNPLSTRVLQSLQRLTSSPDYHGPQIYFSMSDGQQNTLHRPLADAVTAWFPENKQSDVSQIWHAFEHEEHANTFSAFLDRLSDTVSARNTSGFREQVAAWLEKLSASAELRQQSFAVAADATESCEDRVALTWNNLRKTLLVHQASEGLFDNDTGALLSLGREMFRLEILEDIARDKVRTLHFVDEIEVYLAFQTMLAEKLQLSTAVKEMRFYGVSGVTANDLRTAEAMVRSREENEFTDWFSLWGPWHAVLKRTEADRWAQAEEQKYEMLENEYSQRVADRLKASGLSGDADAEREAGAQVMRETEQQIYRQLTDEVLALRLSENGSRLHHS
chain 2: MFSVFEEITRIVVKEMDAGGDMIAVRSLVDADRFRCFHLVGEKRTFFGCRHYTTGLTLMDILDTDGDKWLDELDSGLQGQKAEFQILDNVDSTGELIVRLPKEITISGSFQGFHHQKIKISENRISQQYLATLENRKLKRELPFSFRSINTRENLYLVTETLETVKEETLKSDRQYKFWSQISQGHLSYKHKGQREVTIPPNRVLSYRVKQLVFPNKETMSAGLDIHFRGKTKSFPEGKSLGSEDSRNMKEKLEDMESVLKDLTEEKRKDVLNSLAKCLGKEDIRQDLEQRVSEVLISGELHMEDPDKPLLSSLFNAAGVLVEARAKAILDFLDALLELSEEQQFVAEALEKGTLPLLKDQVKSVMEQNWDELASSPPDMDYDPEARILCALYVVVSILLELAEGPTSVSS

Variants of: B1
Assay: ITC; parent: 94 nM
Work on chain 1 N124A yielded a Kd of 360 nM.
